From the Human Domainome abundance scans (Beltran et al. 2025)
± gives the uncertainty stated by the source.

B1: Ankyrin-1, residues 1405 to 1484; numbered along this chain, P16157 (parent)
chain: MKMAVISEHLGLSWAELARELQFSVEDINRIRVENPNSLLEQSVALLNLWVIREGQNANMENLYTALQSIDRGEIVNMLE

Variants of: B1
Experiment: abundance fitness (aPCA) (normalised: wild type 0, dead -1); higher = more abundant; growth selection in yeast, the domain comes from the species named
Settings: Homo sapiens

| Variant | abundance fitness |
| --- | --- |
| MKMAVISEHLGLSWAELARELQFSVEDINRIRVENPNSLLEQSVALLNLWVIRPGQNANMENLYTALQSIDRGEIVNMLE [E54P] | -0.977 ± 0.25 |
| MKMAVISEHLGLSWAELARELQFSVEDINRIRVENPNSLLEQSVALLNLWVIRQGQNANMENLYTALQSIDRGEIVNMLE [E54Q] | -0.118 ± 0.039 |
| MKMAVISEHLGLSWAELARELQFSVEDINRIRVENPNSLLEQSVALLNLWVIRRGQNANMENLYTALQSIDRGEIVNMLE [E54R] | -0.456 ± 0.065 |
| MKMAVISEHLGLSWAELARELQFSVEDINRIRVENPNSLLEQSVALLNLWVIRSGQNANMENLYTALQSIDRGEIVNMLE [E54S] | -0.136 ± 0.052 |
| MKMAVISEHLGLSWAELARELQFSVEDINRIRVENPNSLLEQSVALLNLWVIRTGQNANMENLYTALQSIDRGEIVNMLE [E54T] | -0.455 ± 0.098 |
| MKMAVISEHLGLSWAELARELQFSVEDINRIRVENPNSLLEQSVALLNLWVIRVGQNANMENLYTALQSIDRGEIVNMLE [E54V] | -0.412 ± 0.061 |
| MKMAVISEHLGLSWAELARELQFSVEDINRIRVENPNSLLEQSVALLNLWVIRWGQNANMENLYTALQSIDRGEIVNMLE [E54W] | -0.62 ± 0.11 |
| MKMAVISEHLGLSWAELARELQFSVEDINRIRVENPNSLLEQSVALLNLWVIRYGQNANMENLYTALQSIDRGEIVNMLE [E54Y] | -0.357 ± 0.15 |
| MKMAVISEHLGLSWAELARELQFSVEDINRIRVENPNSLLEQSVALLNLWVIRECQNANMENLYTALQSIDRGEIVNMLE [G55C] | -0.389 ± 0.17 |
| MKMAVISEHLGLSWAELARELQFSVEDINRIRVENPNSLLEQSVALLNLWVIREDQNANMENLYTALQSIDRGEIVNMLE [G55D] | -0.1 ± 0.1 |
| MKMAVISEHLGLSWAELARELQFSVEDINRIRVENPNSLLEQSVALLNLWVIREEQNANMENLYTALQSIDRGEIVNMLE [G55E] | -0.266 ± 0.18 |
| MKMAVISEHLGLSWAELARELQFSVEDINRIRVENPNSLLEQSVALLNLWVIREFQNANMENLYTALQSIDRGEIVNMLE [G55F] | -0.765 ± 0.33 |
| MKMAVISEHLGLSWAELARELQFSVEDINRIRVENPNSLLEQSVALLNLWVIREIQNANMENLYTALQSIDRGEIVNMLE [G55I] | -0.687 ± 0.32 |
| MKMAVISEHLGLSWAELARELQFSVEDINRIRVENPNSLLEQSVALLNLWVIREKQNANMENLYTALQSIDRGEIVNMLE [G55K] | -0.666 ± 0.44 |
| MKMAVISEHLGLSWAELARELQFSVEDINRIRVENPNSLLEQSVALLNLWVIRELQNANMENLYTALQSIDRGEIVNMLE [G55L] | -0.871 ± 0.2 |
| MKMAVISEHLGLSWAELARELQFSVEDINRIRVENPNSLLEQSVALLNLWVIREMQNANMENLYTALQSIDRGEIVNMLE [G55M] | -0.661 ± 0.46 |
| MKMAVISEHLGLSWAELARELQFSVEDINRIRVENPNSLLEQSVALLNLWVIREPQNANMENLYTALQSIDRGEIVNMLE [G55P] | -0.69 ± 0.41 |
| MKMAVISEHLGLSWAELARELQFSVEDINRIRVENPNSLLEQSVALLNLWVIREQQNANMENLYTALQSIDRGEIVNMLE [G55Q] | -0.339 ± 0.13 |

| Variant | abundance fitness |
| --- | --- |
| MKMAVISEHLGLSWAELARELQFSVEDINRIRVENPNSLLEQSVALLNLWVIRERQNANMENLYTALQSIDRGEIVNMLE [G55R] | -0.394 ± 0.078 |
| MKMAVISEHLGLSWAELARELQFSVEDINRIRVENPNSLLEQSVALLNLWVIRESQNANMENLYTALQSIDRGEIVNMLE [G55S] | -0.277 ± 0.12 |
| MKMAVISEHLGLSWAELARELQFSVEDINRIRVENPNSLLEQSVALLNLWVIRETQNANMENLYTALQSIDRGEIVNMLE [G55T] | -0.133 ± 0.15 |
| MKMAVISEHLGLSWAELARELQFSVEDINRIRVENPNSLLEQSVALLNLWVIREWQNANMENLYTALQSIDRGEIVNMLE [G55W] | -1.01 ± 0.42 |
| MKMAVISEHLGLSWAELARELQFSVEDINRIRVENPNSLLEQSVALLNLWVIREGANANMENLYTALQSIDRGEIVNMLE [Q56A] | -0.113 ± 0.091 |
| MKMAVISEHLGLSWAELARELQFSVEDINRIRVENPNSLLEQSVALLNLWVIREGCNANMENLYTALQSIDRGEIVNMLE [Q56C] | -0.167 ± 0.1 |
| MKMAVISEHLGLSWAELARELQFSVEDINRIRVENPNSLLEQSVALLNLWVIREGDNANMENLYTALQSIDRGEIVNMLE [Q56D] | -0.139 ± 0.19 |
| MKMAVISEHLGLSWAELARELQFSVEDINRIRVENPNSLLEQSVALLNLWVIREGENANMENLYTALQSIDRGEIVNMLE [Q56E] | 0.055 ± 0.085 |
| MKMAVISEHLGLSWAELARELQFSVEDINRIRVENPNSLLEQSVALLNLWVIREGGNANMENLYTALQSIDRGEIVNMLE [Q56G] | -0.035 ± 0.05 |
| MKMAVISEHLGLSWAELARELQFSVEDINRIRVENPNSLLEQSVALLNLWVIREGHNANMENLYTALQSIDRGEIVNMLE [Q56H] | -0.213 ± 0.26 |
| MKMAVISEHLGLSWAELARELQFSVEDINRIRVENPNSLLEQSVALLNLWVIREGINANMENLYTALQSIDRGEIVNMLE [Q56I] | 0.097 ± 0.17 |
| MKMAVISEHLGLSWAELARELQFSVEDINRIRVENPNSLLEQSVALLNLWVIREGLNANMENLYTALQSIDRGEIVNMLE [Q56L] | -0.19 ± 0.061 |
| MKMAVISEHLGLSWAELARELQFSVEDINRIRVENPNSLLEQSVALLNLWVIREGMNANMENLYTALQSIDRGEIVNMLE [Q56M] | -0.061 ± 0.11 |
| MKMAVISEHLGLSWAELARELQFSVEDINRIRVENPNSLLEQSVALLNLWVIREGNNANMENLYTALQSIDRGEIVNMLE [Q56N] | -0.191 ± 0.47 |
| MKMAVISEHLGLSWAELARELQFSVEDINRIRVENPNSLLEQSVALLNLWVIREGPNANMENLYTALQSIDRGEIVNMLE [Q56P] | -0.052 ± 0.08 |
| MKMAVISEHLGLSWAELARELQFSVEDINRIRVENPNSLLEQSVALLNLWVIREGRNANMENLYTALQSIDRGEIVNMLE [Q56R] | -0.02 ± 0.046 |
| MKMAVISEHLGLSWAELARELQFSVEDINRIRVENPNSLLEQSVALLNLWVIREGSNANMENLYTALQSIDRGEIVNMLE [Q56S] | -0.097 ± 0.07 |
